T1: LIN7A, O14910
T1 sequence (O14910 103-200, limits assumed, looked up): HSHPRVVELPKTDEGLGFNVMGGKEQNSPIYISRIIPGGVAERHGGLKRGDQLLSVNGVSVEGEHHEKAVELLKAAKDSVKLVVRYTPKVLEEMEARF

T2: RHPN1, Q8TCX5
T2 sequence (Q8TCX5 508-602, limits assumed, looked up): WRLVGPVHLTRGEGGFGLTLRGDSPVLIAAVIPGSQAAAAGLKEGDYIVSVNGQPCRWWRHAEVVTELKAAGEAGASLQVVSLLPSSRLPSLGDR

T3: DFNB31_1, Q9P202
T3 sequence (Q9P202 135-233, limits assumed, looked up): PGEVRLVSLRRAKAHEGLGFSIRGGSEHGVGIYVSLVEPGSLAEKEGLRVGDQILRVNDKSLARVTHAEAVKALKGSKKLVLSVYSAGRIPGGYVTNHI

T4: SNTG1, Q9NSN8
T4 sequence (Q9NSN8 52-150, limits assumed, looked up): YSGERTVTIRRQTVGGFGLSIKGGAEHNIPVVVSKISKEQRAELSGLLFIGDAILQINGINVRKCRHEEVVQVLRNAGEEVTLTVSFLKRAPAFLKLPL

T5: DLG3_1, Q92796
T5 sequence (Q92796 125-227, limits assumed, looked up): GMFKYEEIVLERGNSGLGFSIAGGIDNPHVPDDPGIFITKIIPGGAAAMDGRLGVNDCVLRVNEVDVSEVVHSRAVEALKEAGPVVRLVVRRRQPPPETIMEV

T6: NHERF3_3, Q5T2W1
T6 sequence (Q5T2W1 238-333, limits assumed, looked up): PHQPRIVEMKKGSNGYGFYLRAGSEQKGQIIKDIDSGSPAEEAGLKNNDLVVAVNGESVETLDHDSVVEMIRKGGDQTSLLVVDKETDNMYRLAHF

T7: PTPN13_1, Q12923
T7 sequence (Q12923 1088-1188, limits assumed, looked up): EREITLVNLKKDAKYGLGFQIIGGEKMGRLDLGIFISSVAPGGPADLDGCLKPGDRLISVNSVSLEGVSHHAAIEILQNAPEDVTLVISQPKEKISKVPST

T8: MPDZ_5, O75970
T8 sequence (O75970 695-796, limits assumed, looked up): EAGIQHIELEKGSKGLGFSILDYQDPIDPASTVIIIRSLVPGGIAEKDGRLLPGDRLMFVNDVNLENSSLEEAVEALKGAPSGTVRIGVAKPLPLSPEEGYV

T9: RADIL, Q96JH8
T9 sequence (Q96JH8 971-1071, limits assumed, looked up): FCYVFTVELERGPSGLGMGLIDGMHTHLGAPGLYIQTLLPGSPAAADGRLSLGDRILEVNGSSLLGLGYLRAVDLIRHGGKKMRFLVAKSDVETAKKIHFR

T10: DLG3_2, Q92796
T10 sequence (Q92796 221-321, limits assumed, looked up): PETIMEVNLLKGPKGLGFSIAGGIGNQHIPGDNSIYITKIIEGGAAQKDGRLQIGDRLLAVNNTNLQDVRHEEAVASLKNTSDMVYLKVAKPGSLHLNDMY

T11: SNTG2, Q9NY99
T11 sequence (Q9NY99 68-166, limits assumed, looked up): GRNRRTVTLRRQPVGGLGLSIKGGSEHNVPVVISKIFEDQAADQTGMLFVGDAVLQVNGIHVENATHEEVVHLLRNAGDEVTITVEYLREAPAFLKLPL

B1: ADGRA1, Q86SQ6 (peptide)
chain: TGPWKNETTV
B2: IGF1R, P08069 (peptide)
chain: ALPLPQSSTC

These binders were tested against T1, LIN7A, O14910 (assay: holdup assay). Conditions: plain residues with an end cap or a label only (N-terminal biotin on a linker: ado-ado).
Parameters: key: below the threshold = too weak to quantify, mostly under pKd 3.1 to 4

**Q.** How did the pKd turn out when B1 was run?
**A.** 3.86

**Q.** With B2 as the binder, how does the pKd read?
**A.** below the threshold

What follows are binders tested against T2, RHPN1, Q8TCX5 (assay: holdup assay). Conditions: plain residues with an end cap or a label only (N-terminal biotin on a linker: ado-ado).
Parameters: key: below the threshold = too weak to quantify, mostly under pKd 3.1 to 4

**Q.** For B1, which pKd is on record?
**A.** 4.55

**Q.** For B2, which pKd is on record?
**A.** 3.58

These binders were tested against PTPN3, P26045 (assay: holdup assay). Conditions: plain residues with an end cap or a label only (N-terminal biotin on a linker: ado-ado).
Parameters: key: below the threshold = too weak to quantify, mostly under pKd 3.1 to 4

Sequence of PTPN3, P26045 (P26045 505-587): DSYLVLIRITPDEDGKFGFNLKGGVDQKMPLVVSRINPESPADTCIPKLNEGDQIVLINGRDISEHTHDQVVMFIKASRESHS

**Q.** How did the pKd turn out when B1 was run?
**A.** 4.76

**Q.** Which pKd does the source give for B2 here?
**A.** below the threshold

Each binder was assayed against T3, DFNB31_1, Q9P202 (assay: holdup assay). Conditions: plain residues with an end cap or a label only (N-terminal biotin on a linker: ado-ado).
Parameters: key: below the threshold = too weak to quantify, mostly under pKd 3.1 to 4

**Q.** Which pKd does the source give for B1 here?
**A.** 3.73

**Q.** Which pKd does the source give for B2 here?
**A.** below the threshold

What follows are binders tested against LIMK2, P53671 (assay: holdup assay). Conditions: plain residues with an end cap or a label only (N-terminal biotin on a linker: ado-ado).
Parameters: key: below the threshold = too weak to quantify, mostly under pKd 3.1 to 4

Sequence of LIMK2, P53671 (P53671 143-248): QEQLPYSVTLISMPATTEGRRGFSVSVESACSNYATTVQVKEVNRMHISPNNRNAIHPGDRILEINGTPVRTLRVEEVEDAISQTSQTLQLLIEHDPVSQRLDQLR

**Q.** B1 was tested. Which pKd did it give?
**A.** below the threshold

**Q.** Which pKd does the source give for B2 here?
**A.** below the threshold

What follows are binders tested against T4, SNTG1, Q9NSN8 (assay: holdup assay). Conditions: plain residues with an end cap or a label only (N-terminal biotin on a linker: ado-ado).
Parameters: key: below the threshold = too weak to quantify, mostly under pKd 3.1 to 4

**Q.** Which pKd does the source give for B1 here?
**A.** 4.19

**Q.** Which pKd does the source give for B2 here?
**A.** below the threshold

The binders below were run against T5, DLG3_1, Q92796 (assay: holdup assay). Conditions: plain residues with an end cap or a label only (N-terminal biotin on a linker: ado-ado).
Parameters: key: below the threshold = too weak to quantify, mostly under pKd 3.1 to 4

**Q.** How did the pKd turn out when B1 was run?
**A.** 4.47

**Q.** B2 was tested. Which pKd did it give?
**A.** below the threshold

Each binder was assayed against GORASP2, Q9H8Y8 (assay: holdup assay). Conditions: plain residues with an end cap or a label only (N-terminal biotin on a linker: ado-ado).
Parameters: key: below the threshold = too weak to quantify, mostly under pKd 3.1 to 4

**Q.** Which pKd does the source give for B1 here?
**A.** 3.57

**Q.** B2 was tested. Which pKd did it give?
**A.** below the threshold

These binders were tested against FRMPD2_3, Q68DX3 (assay: holdup assay). Conditions: plain residues with an end cap or a label only (N-terminal biotin on a linker: ado-ado).
Parameters: key: below the threshold = too weak to quantify, mostly under pKd 3.1 to 4

Sequence of FRMPD2_3, Q68DX3 (Q68DX3 1073-1166): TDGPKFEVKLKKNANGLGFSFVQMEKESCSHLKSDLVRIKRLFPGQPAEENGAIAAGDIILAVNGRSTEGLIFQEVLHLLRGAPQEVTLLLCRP

**Q.** Which pKd does the source give for B1 here?
**A.** below the threshold

**Q.** With B2 as the binder, how does the pKd read?
**A.** 3.54

These binders were tested against AHNAK1, Q09666 (assay: holdup assay). Conditions: plain residues with an end cap or a label only (N-terminal biotin on a linker: ado-ado).
Parameters: key: below the threshold = too weak to quantify, mostly under pKd 3.1 to 4

Sequence of AHNAK1, Q09666 (Q09666 4-100): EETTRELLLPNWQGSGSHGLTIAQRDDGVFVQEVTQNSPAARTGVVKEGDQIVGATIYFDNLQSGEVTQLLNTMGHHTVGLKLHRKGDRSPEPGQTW

**Q.** How did the pKd turn out when B1 was run?
**A.** below the threshold

**Q.** Which pKd does the source give for B2 here?
**A.** below the threshold

These binders were tested against T6, NHERF3_3, Q5T2W1 (assay: holdup assay). Conditions: plain residues with an end cap or a label only (N-terminal biotin on a linker: ado-ado).
Parameters: key: below the threshold = too weak to quantify, mostly under pKd 3.1 to 4

**Q.** For B1, which pKd is on record?
**A.** below the threshold

**Q.** Which pKd does the source give for B2 here?
**A.** below the threshold

Each binder was assayed against Inadl_10, Q8NI35 (assay: holdup assay). Conditions: plain residues with an end cap or a label only (N-terminal biotin on a linker: ado-ado).
Parameters: key: below the threshold = too weak to quantify, mostly under pKd 3.1 to 4

Sequence of Inadl_10, Q8NI35 (Q8NI35 1673-1763): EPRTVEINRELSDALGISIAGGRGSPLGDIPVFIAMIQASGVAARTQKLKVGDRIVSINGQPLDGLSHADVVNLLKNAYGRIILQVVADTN

**Q.** B1 was tested. Which pKd did it give?
**A.** below the threshold

**Q.** For B2, which pKd is on record?
**A.** below the threshold

The binders below were run against TJP1_3, Q07157 (assay: holdup assay). Conditions: plain residues with an end cap or a label only (N-terminal biotin on a linker: ado-ado).
Parameters: key: below the threshold = too weak to quantify, mostly under pKd 3.1 to 4

Sequence of TJP1_3, Q07157 (Q07157 416-512): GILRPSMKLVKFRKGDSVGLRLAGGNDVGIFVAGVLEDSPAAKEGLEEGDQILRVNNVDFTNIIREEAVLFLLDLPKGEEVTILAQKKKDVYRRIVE

**Q.** Which pKd does the source give for B1 here?
**A.** below the threshold

**Q.** With B2 as the binder, how does the pKd read?
**A.** below the threshold

Each binder was assayed against NHERF4_1, Q86UT5-2 (assay: holdup assay). Conditions: plain residues with an end cap or a label only (N-terminal biotin on a linker: ado-ado).
Parameters: key: below the threshold = too weak to quantify, mostly under pKd 3.1 to 4

Sequence of NHERF4_1, Q86UT5-2 (Q86UT5 other isoform, or with tags, fused parts or gaps): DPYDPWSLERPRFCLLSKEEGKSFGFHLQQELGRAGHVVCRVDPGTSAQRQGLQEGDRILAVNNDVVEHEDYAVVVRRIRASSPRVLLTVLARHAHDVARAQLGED

**Q.** For B1, which pKd is on record?
**A.** below the threshold

**Q.** With B2 as the binder, how does the pKd read?
**A.** 3.88

What follows are binders tested against T7, PTPN13_1, Q12923 (assay: holdup assay). Conditions: plain residues with an end cap or a label only (N-terminal biotin on a linker: ado-ado).
Parameters: key: below the threshold = too weak to quantify, mostly under pKd 3.1 to 4

**Q.** With B1 as the binder, how does the pKd read?
**A.** below the threshold

**Q.** B2 was tested. Which pKd did it give?
**A.** below the threshold

These binders were tested against MAGI1_2, Q96QZ7 (assay: holdup assay). Conditions: plain residues with an end cap or a label only (N-terminal biotin on a linker: ado-ado).
Parameters: key: below the threshold = too weak to quantify, mostly under pKd 3.1 to 4

Sequence of MAGI1_2, Q96QZ7 (Q96QZ7 456-580): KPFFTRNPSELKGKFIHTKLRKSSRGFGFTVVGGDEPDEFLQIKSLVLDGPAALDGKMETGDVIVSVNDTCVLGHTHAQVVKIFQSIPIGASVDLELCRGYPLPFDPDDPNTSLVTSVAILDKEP

**Q.** With B1 as the binder, how does the pKd read?
**A.** 4.67

**Q.** B2 was tested. Which pKd did it give?
**A.** below the threshold

The binders below were run against DLG1_3, Q12959 (assay: holdup assay). Conditions: plain residues with an end cap or a label only (N-terminal biotin on a linker: ado-ado).
Parameters: key: below the threshold = too weak to quantify, mostly under pKd 3.1 to 4

Sequence of DLG1_3, Q12959 (Q12959 457-571): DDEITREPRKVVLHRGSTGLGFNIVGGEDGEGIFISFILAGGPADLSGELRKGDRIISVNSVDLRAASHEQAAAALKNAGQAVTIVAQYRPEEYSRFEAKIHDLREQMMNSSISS

**Q.** How did the pKd turn out when B1 was run?
**A.** 4.47

**Q.** How did the pKd turn out when B2 was run?
**A.** 3.56

Each binder was assayed against MAGI2_4, Q86UL8 (assay: holdup assay). Conditions: plain residues with an end cap or a label only (N-terminal biotin on a linker: ado-ado).
Parameters: key: below the threshold = too weak to quantify, mostly under pKd 3.1 to 4

Sequence of MAGI2_4, Q86UL8 (Q86UL8 772-865): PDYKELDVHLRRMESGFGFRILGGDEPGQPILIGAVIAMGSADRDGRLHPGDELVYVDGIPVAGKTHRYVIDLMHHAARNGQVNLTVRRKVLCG

**Q.** For B1, which pKd is on record?
**A.** 4.74

**Q.** B2 was tested. Which pKd did it give?
**A.** below the threshold

These binders were tested against T8, MPDZ_5, O75970 (assay: holdup assay). Conditions: plain residues with an end cap or a label only (N-terminal biotin on a linker: ado-ado).
Parameters: key: below the threshold = too weak to quantify, mostly under pKd 3.1 to 4

**Q.** With B1 as the binder, how does the pKd read?
**A.** below the threshold

**Q.** With B2 as the binder, how does the pKd read?
**A.** below the threshold

Each binder was assayed against T9, RADIL, Q96JH8 (assay: holdup assay). Conditions: plain residues with an end cap or a label only (N-terminal biotin on a linker: ado-ado).
Parameters: key: below the threshold = too weak to quantify, mostly under pKd 3.1 to 4

**Q.** How did the pKd turn out when B1 was run?
**A.** 4.04

**Q.** Which pKd does the source give for B2 here?
**A.** below the threshold

These binders were tested against LNX1_2, Q8TBB1 (assay: holdup assay). Conditions: plain residues with an end cap or a label only (N-terminal biotin on a linker: ado-ado).
Parameters: key: below the threshold = too weak to quantify, mostly under pKd 3.1 to 4

Sequence of LNX1_2, Q8TBB1 (Q8TBB1 371-470): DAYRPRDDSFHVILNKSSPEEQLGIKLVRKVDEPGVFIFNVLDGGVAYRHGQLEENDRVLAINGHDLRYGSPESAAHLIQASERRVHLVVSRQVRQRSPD

**Q.** Which pKd does the source give for B1 here?
**A.** 3.62

**Q.** With B2 as the binder, how does the pKd read?
**A.** below the threshold

Each binder was assayed against SCRIB_2, Q14160 (assay: holdup assay). Conditions: plain residues with an end cap or a label only (N-terminal biotin on a linker: ado-ado).
Parameters: key: below the threshold = too weak to quantify, mostly under pKd 3.1 to 4

Sequence of SCRIB_2, Q14160 (Q14160 857-960): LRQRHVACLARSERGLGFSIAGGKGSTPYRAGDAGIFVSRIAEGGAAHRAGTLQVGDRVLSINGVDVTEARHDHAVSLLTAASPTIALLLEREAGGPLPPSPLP

**Q.** With B1 as the binder, how does the pKd read?
**A.** 4.25

**Q.** Which pKd does the source give for B2 here?
**A.** below the threshold

The binders below were run against Inadl_3, Q8NI35 (assay: holdup assay). Conditions: plain residues with an end cap or a label only (N-terminal biotin on a linker: ado-ado).
Parameters: key: below the threshold = too weak to quantify, mostly under pKd 3.1 to 4

Sequence of Inadl_3, Q8NI35 (Q8NI35 359-469): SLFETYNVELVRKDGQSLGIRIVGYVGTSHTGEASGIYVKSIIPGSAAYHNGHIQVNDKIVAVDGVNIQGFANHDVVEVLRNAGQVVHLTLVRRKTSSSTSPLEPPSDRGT

**Q.** How did the pKd turn out when B1 was run?
**A.** below the threshold

**Q.** Which pKd does the source give for B2 here?
**A.** below the threshold

Each binder was assayed against T10, DLG3_2, Q92796 (assay: holdup assay). Conditions: plain residues with an end cap or a label only (N-terminal biotin on a linker: ado-ado).
Parameters: key: below the threshold = too weak to quantify, mostly under pKd 3.1 to 4

**Q.** With B1 as the binder, how does the pKd read?
**A.** 5.01

**Q.** How did the pKd turn out when B2 was run?
**A.** 4.22

These binders were tested against Inadl_9, Q8NI35 (assay: holdup assay). Conditions: plain residues with an end cap or a label only (N-terminal biotin on a linker: ado-ado).
Parameters: key: below the threshold = too weak to quantify, mostly under pKd 3.1 to 4

Sequence of Inadl_9, Q8NI35 (Q8NI35 1530-1615): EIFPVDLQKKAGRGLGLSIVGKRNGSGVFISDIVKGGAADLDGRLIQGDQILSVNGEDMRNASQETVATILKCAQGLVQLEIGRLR

**Q.** For B1, which pKd is on record?
**A.** below the threshold

**Q.** How did the pKd turn out when B2 was run?
**A.** below the threshold

These binders were tested against T11, SNTG2, Q9NY99 (assay: holdup assay). Conditions: plain residues with an end cap or a label only (N-terminal biotin on a linker: ado-ado).
Parameters: key: below the threshold = too weak to quantify, mostly under pKd 3.1 to 4

**Q.** How did the pKd turn out when B1 was run?
**A.** 4.26

**Q.** Which pKd does the source give for B2 here?
**A.** below the threshold

These binders were tested against FRMPD2_2, Q68DX3 (assay: holdup assay). Conditions: plain residues with an end cap or a label only (N-terminal biotin on a linker: ado-ado).
Parameters: key: below the threshold = too weak to quantify, mostly under pKd 3.1 to 4

Sequence of FRMPD2_2, Q68DX3 (Q68DX3 944-1038): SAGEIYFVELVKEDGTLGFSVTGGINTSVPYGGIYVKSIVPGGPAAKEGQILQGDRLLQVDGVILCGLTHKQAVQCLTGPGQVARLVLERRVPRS

**Q.** With B1 as the binder, how does the pKd read?
**A.** 3.57

**Q.** For B2, which pKd is on record?
**A.** below the threshold
